According to patent US20170327571A1 (BEIJING BETTERMAB BIOTECHNOLOGY, published 2017):

T1: Macaca mulatta IL17 (mmIL17) (Macaca mulatta, UniProt Q16552 24-155 (human entry), limits assumed)
T1 chain: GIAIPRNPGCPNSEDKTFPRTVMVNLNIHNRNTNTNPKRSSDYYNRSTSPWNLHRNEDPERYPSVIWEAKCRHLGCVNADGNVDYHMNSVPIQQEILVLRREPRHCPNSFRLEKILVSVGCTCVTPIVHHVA

T2: mouse (Mus musculus) IL17 (moIL17) (mouse (Mus musculus), UniProt Q62386 26-158)
T2 construct: also called mIL17; mouse IL17
T2 sequence: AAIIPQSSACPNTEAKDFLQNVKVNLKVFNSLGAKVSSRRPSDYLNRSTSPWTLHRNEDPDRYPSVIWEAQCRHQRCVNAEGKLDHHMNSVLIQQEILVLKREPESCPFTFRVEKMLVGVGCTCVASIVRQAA

T3: Macaca fascicularis IL17 (mfIL17) (Macaca fascicularis, UniProt Q16552 24-155 (human entry), limits assumed)
T3 chain: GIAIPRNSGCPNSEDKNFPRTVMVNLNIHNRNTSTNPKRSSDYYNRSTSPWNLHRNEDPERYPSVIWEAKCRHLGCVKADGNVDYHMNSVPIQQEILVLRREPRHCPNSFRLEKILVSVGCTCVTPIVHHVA

T4: huIL17-his (human IL17 with C-terminal His-tag) (human (homo sapiens), UniProt Q16552 24-155)
T4 sequence: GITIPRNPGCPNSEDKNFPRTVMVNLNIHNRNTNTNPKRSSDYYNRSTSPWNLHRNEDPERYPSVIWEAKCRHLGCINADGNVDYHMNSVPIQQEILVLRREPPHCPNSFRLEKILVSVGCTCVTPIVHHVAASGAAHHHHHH


Columns and labels:
[1] = biological target: T1, Macaca mulatta IL17 (mmIL17); assay: ELISA, coated IL17 1 ug/ml, HRP-anti-human IgG
Protocol: (§1) Four kinds of prepared IL17 (huIL17, mIL17, mmIL17, and mfIL17) were used to coat 96-well ELISA plates overnight at 4° C. (1 μg/ml, 100 μl/well). A blocking solution (2% milk powder-PBST) was added, and the plates were incubated at 37° C. for 1 h. […] Then, the plates were washed four times with PBST. Then, HRP-anti-human IgG (a secondary antibody) was added, and allowed to incubate at 37° C. for 1 h. Then, the plates were washed four times with PBST. An OPD developing solution was added to develop for 5-10 min. Then, 1M H₂SO₄ was added to terminate the development.

[2] = biological target: T2, mouse (Mus musculus) IL17 (moIL17); assay: ELISA, coated IL17 1 ug/ml, HRP-anti-human IgG
Protocol: as §1

[3] = biological target: T3, Macaca fascicularis IL17 (mfIL17); assay: ELISA, coated IL17 1 ug/ml, HRP-anti-human IgG
Protocol: as §1

[4] = biological target: T4, huIL17-his (human IL17 with C-terminal …); assay: cell-based or functional assay

binding result [1]	binding result [2]	binding result [3]	IC50 of inhibiting IL17-induced release of IL6 by HDFa cells (2 nM IL17-His) [4] [nM]	Binder
binds	no binding	binds		Ixekizumab (antibody, V domains shown) VH: QVQLVQSGAEVKKPGSSVKVSCKASGYSFTDYHIHWVRQAPGQGLEWMGVINPMYGTTDYNQRFKGRVTITADESTSTAYMELSSLRSEDTAVYYCARYDYFTGTGVYWGQGTLVTVSS VL: DIVMTQTPLSLSVTPGQPASISCRSSRSLVHSRGNTYLHWYLQKPGQSPQLLIYKVSNRFIGVPDRFSGSGSGTDFTLKISRVEAEDVGVYYCSQSTHLPFTFGQGTKLEIK
binds	no binding	binds	0.12	anti-IL17 monoclonal antibody 9GA3 (antibody, V domains shown, Recombinant intact antibody) VH: EVQLVESGGGLVQPGGSLRLSCAASGITMDDYWMNWVRQAPGKGLEWVAAINQDGNEKYYVGSVKGRFTISRDNAKNSLYLQMNSLRVEDTAVYYCVRDYYDLISDYYIHYWYFDLWGRGTLVTVSS VL: DIQMTQSPSSLSASVGDRVTITCRASQNVHNRLTWYQQKPGKAPKLLIYGASNLESGVPSRFSGSGSGTDFTLTISSLQPEDFATYYCQQYNGSPTTFGQGTKVEIK
	no binding			control antibody Secukinumab (antibody, V domains shown) VH: EVQLVESGGGLVQPGGSLRLSCAASGFTFSNYWMNWVRQAPGKGLEWVAAINQDGSEKYYVGSVKGRFTISRDNAKNSLYLQMNSLRVEDTAVYYCVRDYYDILTDYYIHYWYFDLWGRGTLVTVSS VL: not shown
binds	no binding	binds	0.07	anti-IL17 monoclonal antibody 9GC5 (antibody, V domains shown, Recombinant intact antibody) VH: EVQLVESGGGLVQPGGSLRLSCAASGMSMSDYWMNWVRQAPGKGLEWVAAINQDGDEKYYVGSVKGRFTISRDNAKNSLYLQMNSLRVEDTAVYYCVRDYYDLISDYYIHYWYFDLWGRGTLVTVSS VL: DIQMTQSPSSLSASVGDRVTITCRASQNVHNRLTWYQQKPGKAPKLLIYGASNLESGVPSRFSGSGSGTDFTLTISSLQPEDFATYYCQQYNGSPTTFGQGTKVEIK
binds	no binding	binds	0.22	anti-IL17 monoclonal antibody 9GC2 (antibody, V domains shown, Recombinant intact antibody) VH: EVQLVESGGGLVQPGGSLRLSCAASGFTIDNYWMNWVRQAPGKGLEWVAAINQDGNEKYYVGSVKGRFTISRDNAKNSLYLQMNSLRVEDTAVYYCVRDYYDVISDYYIHYWYFDLWGRGTLVTVSS VL: DIQMTQSPSSLSASVGDRVTITCRASQNVHNRLTWYQQKPGKAPKLLIYGASNLESGVPSRFSGSGSGTDFTLTISSLQPEDFATYYCQQYNGSPTTFGQGTKVEIK
